# Measurements reported in US20260176319A1 (KALLYOPE, published 2026).
# Starred links: 1 amine or outer side, 2 acyl side, 3 side chain; linkers in the order of their positions; H or OH if unused. Non-standard residues stand in square brackets, D forms with d. *: point of attachment. Trp(6-Me) = Cc1ccc2c(C[C@H](N)C(=O)O)c[nH]c2c1; Trp(7-Me) = Cc1cccc2c(C[C@H](N)C(=O)O)c[nH]c12; d(γGlu) = O=C(O)[C@@H](CCC(=O)[*:2])N[*:1]; C18 diacid = O=C(O)CCCCCCCCCCCCCCCCC(=O)*; Palmitoyl = CCCCCCCCCCCCCCCC(=O)*; 3Pal = N[C@@H](Cc1cccnc1)C(=O)O; Nle = CCCC[C@H](N)C(=O)O; AEEA = NCCOCCOCC(=O)O; Aib = CC(C)(N)C(=O)O; Sar = CNCC(=O)O
# Target: human GRP receptor (human, UniProt P30550 1-384)
# Sequence (P30550 whole entry): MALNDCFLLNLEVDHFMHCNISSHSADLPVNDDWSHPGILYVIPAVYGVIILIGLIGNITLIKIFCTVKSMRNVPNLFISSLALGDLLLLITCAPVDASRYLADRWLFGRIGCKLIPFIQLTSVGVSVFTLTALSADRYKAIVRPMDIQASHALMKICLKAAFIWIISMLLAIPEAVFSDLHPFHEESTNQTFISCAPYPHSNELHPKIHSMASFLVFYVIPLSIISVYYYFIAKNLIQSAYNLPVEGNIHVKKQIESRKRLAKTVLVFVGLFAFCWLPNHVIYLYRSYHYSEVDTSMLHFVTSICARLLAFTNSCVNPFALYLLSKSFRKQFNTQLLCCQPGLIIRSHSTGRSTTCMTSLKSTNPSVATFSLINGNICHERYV
# Experiment: cell-based or functional assay
row,Binder,hIP1 GRPR EC50 [nM]
1,Palmitoyl-[d(γGlu)][AEEA][AEEA]GNH[Trp(6-Me)]AV[dA]HL[Nle]-NH2 (SMILES CCCCCCCCCCCCCCCC(=O)N[C@H](CCC(=O)NCCOCCOCC(=O)NCCOCCOCC(=O)NCC(=O)N[C@@H](CC(N)=O)C(=O)N[C@@H](Cc1c[nH]cn1)C(=O)N[C@@H](Cc1c[nH]c2cc(C)ccc12)C(=O)N[C@@H](C)C(=O)N[C@H](C(=O)N[C@H](C)C(=O)N[C@@H](Cc1c[nH]cn1)C(=O)N[C@@H](CC(C)C)C(=O)N[C@@H](CCCC)C(N)=O)C(C)C)C(=O)O) [Peptide 63],4.75
2,{C18 diacid}-[d(γGlu)][AEEA][AEEA]GKHWAV[dA]HL[Nle]-NH2 (SMILES CCCC[C@H](NC(=O)[C@H](CC(C)C)NC(=O)[C@H](Cc1c[nH]cn1)NC(=O)[C@@H](C)NC(=O)[C@@H](NC(=O)[C@H](C)NC(=O)[C@H](Cc1c[nH]c2ccccc12)NC(=O)[C@H](Cc1c[nH]cn1)NC(=O)[C@H](CCCCN)NC(=O)CNC(=O)COCCOCCNC(=O)COCCOCCNC(=O)CC[C@@H](NC(=O)CCCCCCCCCCCCCCCCC(=O)O)C(=O)O)C(C)C)C(N)=O) [Peptide 60],7.27
3,Palmitoyl-[d(γGlu)][AEEA][AEEA][AEEA][AEEA]GNH[Trp(7-Me)]AV[dA]HL[Nle]-NH2 (SMILES CCCCCCCCCCCCCCCC(=O)N[C@H](CCC(=O)NCCOCCOCC(=O)NCCOCCOCC(=O)NCCOCCOCC(=O)NCCOCCOCC(=O)NCC(=O)N[C@@H](CC(N)=O)C(=O)N[C@@H](Cc1c[nH]cn1)C(=O)N[C@@H](Cc1c[nH]c2c(C)cccc12)C(=O)N[C@@H](C)C(=O)N[C@H](C(=O)N[C@H](C)C(=O)N[C@@H](Cc1c[nH]cn1)C(=O)N[C@@H](CC(C)C)C(=O)N[C@@H](CCCC)C(N)=O)C(C)C)C(=O)O) [Peptide 59],2.01
4,{C18 diacid}-[d(γGlu)][AEEA][AEEA]GK(Ac)HWAV[dA]HL[Nle]-NH2 (SMILES CCCC[C@H](NC(=O)[C@H](CC(C)C)NC(=O)[C@H](Cc1c[nH]cn1)NC(=O)[C@@H](C)NC(=O)[C@@H](NC(=O)[C@H](C)NC(=O)[C@H](Cc1c[nH]c2ccccc12)NC(=O)[C@H](Cc1c[nH]cn1)NC(=O)[C@H](CCCCNC(C)=O)NC(=O)CNC(=O)COCCOCCNC(=O)COCCOCCNC(=O)CC[C@@H](NC(=O)CCCCCCCCCCCCCCCCC(=O)O)C(=O)O)C(C)C)C(N)=O) [Peptide 65],6.05
5,{C18 diacid}-[d(γGlu)][AEEA][AEEA]GN[3Pal]WAV[dA]HL[Nle]-NH2 (SMILES CCCC[C@H](NC(=O)[C@H](CC(C)C)NC(=O)[C@H](Cc1c[nH]cn1)NC(=O)[C@@H](C)NC(=O)[C@@H](NC(=O)[C@H](C)NC(=O)[C@H](Cc1c[nH]c2ccccc12)NC(=O)[C@H](Cc1cccnc1)NC(=O)[C@H](CC(N)=O)NC(=O)CNC(=O)COCCOCCNC(=O)COCCOCCNC(=O)CC[C@@H](NC(=O)CCCCCCCCCCCCCCCCC(=O)O)C(=O)O)C(C)C)C(N)=O) [Peptide 64],49.4
6,{C18 diacid}-[d(γGlu)][AEEA][AEEA]GRHWAV[dA]HL[Nle]-NH2 (SMILES CCCC[C@H](NC(=O)[C@H](CC(C)C)NC(=O)[C@H](Cc1c[nH]cn1)NC(=O)[C@@H](C)NC(=O)[C@@H](NC(=O)[C@H](C)NC(=O)[C@H](Cc1c[nH]c2ccccc12)NC(=O)[C@H](Cc1c[nH]cn1)NC(=O)[C@H](CCCNC(=N)N)NC(=O)CNC(=O)COCCOCCNC(=O)COCCOCCNC(=O)CC[C@@H](NC(=O)CCCCCCCCCCCCCCCCC(=O)O)C(=O)O)C(C)C)C(N)=O) [Peptide 61],8.25
7,{C18 diacid}-[d(γGlu)][AEEA][AEEA]GNHWAV[dA][3Pal]L[Nle]-NH2 (SMILES CCCC[C@H](NC(=O)[C@H](CC(C)C)NC(=O)[C@H](Cc1cccnc1)NC(=O)[C@@H](C)NC(=O)[C@@H](NC(=O)[C@H](C)NC(=O)[C@H](Cc1c[nH]c2ccccc12)NC(=O)[C@H](Cc1c[nH]cn1)NC(=O)[C@H](CC(N)=O)NC(=O)CNC(=O)COCCOCCNC(=O)COCCOCCNC(=O)CC[C@@H](NC(=O)CCCCCCCCCCCCCCCCC(=O)O)C(=O)O)C(C)C)C(N)=O) [Peptide 66],308
8,{C18 diacid}-[d(γGlu)][AEEA][AEEA]GNHWAV[dA]FL[Nle]-NH2 (SMILES CCCC[C@H](NC(=O)[C@H](CC(C)C)NC(=O)[C@H](Cc1ccccc1)NC(=O)[C@@H](C)NC(=O)[C@@H](NC(=O)[C@H](C)NC(=O)[C@H](Cc1c[nH]c2ccccc12)NC(=O)[C@H](Cc1c[nH]cn1)NC(=O)[C@H](CC(N)=O)NC(=O)CNC(=O)COCCOCCNC(=O)COCCOCCNC(=O)CC[C@@H](NC(=O)CCCCCCCCCCCCCCCCC(=O)O)C(=O)O)C(C)C)C(N)=O) [Peptide 62],83.7
9,{C18 diacid}-[d(γGlu)][AEEA][AEEA]GNHWAV[Aib]HL[Nle]-NH2 (SMILES CCCC[C@H](NC(=O)[C@H](CC(C)C)NC(=O)[C@H](Cc1c[nH]cn1)NC(=O)C(C)(C)NC(=O)[C@@H](NC(=O)[C@H](C)NC(=O)[C@H](Cc1c[nH]c2ccccc12)NC(=O)[C@H](Cc1c[nH]cn1)NC(=O)[C@H](CC(N)=O)NC(=O)CNC(=O)COCCOCCNC(=O)COCCOCCNC(=O)CC[C@@H](NC(=O)CCCCCCCCCCCCCCCCC(=O)O)C(=O)O)C(C)C)C(N)=O) [Peptide 4],1420

# Second part, the binder after the results:
row,hIP1 GRPR EC50 [nM],Binder
1,972,{C18 diacid}-[d(γGlu)][AEEA][AEEA]GEHW[Aib]V[dA]HL[Nle]-NH2 (SMILES CCCC[C@H](NC(=O)[C@H](CC(C)C)NC(=O)[C@H](Cc1c[nH]cn1)NC(=O)[C@@H](C)NC(=O)[C@@H](NC(=O)C(C)(C)NC(=O)[C@H](Cc1c[nH]c2ccccc12)NC(=O)[C@H](Cc1c[nH]cn1)NC(=O)[C@H](CCC(=O)O)NC(=O)CNC(=O)COCCOCCNC(=O)COCCOCCNC(=O)CC[C@@H](NC(=O)CCCCCCCCCCCCCCCCC(=O)O)C(=O)O)C(C)C)C(N)=O) [Peptide 70]
2,> 10000,{C18 diacid}-[d(γGlu)][AEEA][AEEA]GNHWAV[dA]HLR-NH2 (SMILES CC(C)C[C@H](NC(=O)[C@H](Cc1c[nH]cn1)NC(=O)[C@@H](C)NC(=O)[C@@H](NC(=O)[C@H](C)NC(=O)[C@H](Cc1c[nH]c2ccccc12)NC(=O)[C@H](Cc1c[nH]cn1)NC(=O)[C@H](CC(N)=O)NC(=O)CNC(=O)COCCOCCNC(=O)COCCOCCNC(=O)CC[C@@H](NC(=O)CCCCCCCCCCCCCCCCC(=O)O)C(=O)O)C(C)C)C(=O)N[C@@H](CCCNC(=N)N)C(N)=O) [Peptide 69]
3,1190,{C18 diacid}-[d(γGlu)][AEEA][AEEA]GN[3Pal][Trp(7-Me)]AV[dA]HL[Nle][Sar]-NH2 (SMILES CCCC[C@H](NC(=O)[C@H](CC(C)C)NC(=O)[C@H](Cc1c[nH]cn1)NC(=O)[C@@H](C)NC(=O)[C@@H](NC(=O)[C@H](C)NC(=O)[C@H](Cc1c[nH]c2c(C)cccc12)NC(=O)[C@H](Cc1cccnc1)NC(=O)[C@H](CC(N)=O)NC(=O)CNC(=O)COCCOCCNC(=O)COCCOCCNC(=O)CC[C@@H](NC(=O)CCCCCCCCCCCCCCCCC(=O)O)C(=O)O)C(C)C)C(=O)N(C)CC(N)=O) [Peptide 73]
4,> 10000,{C18 diacid}-[d(γGlu)][AEEA][AEEA]GNHHAV[dA]HL[Nle]-NH2 (SMILES CCCC[C@H](NC(=O)[C@H](CC(C)C)NC(=O)[C@H](Cc1c[nH]cn1)NC(=O)[C@@H](C)NC(=O)[C@@H](NC(=O)[C@H](C)NC(=O)[C@H](Cc1c[nH]cn1)NC(=O)[C@H](Cc1c[nH]cn1)NC(=O)[C@H](CC(N)=O)NC(=O)CNC(=O)COCCOCCNC(=O)COCCOCCNC(=O)CC[C@@H](NC(=O)CCCCCCCCCCCCCCCCC(=O)O)C(=O)O)C(C)C)C(N)=O) [Peptide 68]
5,1050,{C18 diacid}-[d(γGlu)][AEEA][AEEA]GEHWAV[dA][3Pal]L[Nle]-NH2 (SMILES CCCC[C@H](NC(=O)[C@H](CC(C)C)NC(=O)[C@H](Cc1cccnc1)NC(=O)[C@@H](C)NC(=O)[C@@H](NC(=O)[C@H](C)NC(=O)[C@H](Cc1c[nH]c2ccccc12)NC(=O)[C@H](Cc1c[nH]cn1)NC(=O)[C@H](CCC(=O)O)NC(=O)CNC(=O)COCCOCCNC(=O)COCCOCCNC(=O)CC[C@@H](NC(=O)CCCCCCCCCCCCCCCCC(=O)O)C(=O)O)C(C)C)C(N)=O) [Peptide 67]
6,1050,{C18 diacid}-[d(γGlu)][AEEA][AEEA]GN[3Pal]WAV[dA]HL[Nle][Sar]-NH2 (SMILES CCCC[C@H](NC(=O)[C@H](CC(C)C)NC(=O)[C@H](Cc1c[nH]cn1)NC(=O)[C@@H](C)NC(=O)[C@@H](NC(=O)[C@H](C)NC(=O)[C@H](Cc1c[nH]c2ccccc12)NC(=O)[C@H](Cc1cccnc1)NC(=O)[C@H](CC(N)=O)NC(=O)CNC(=O)COCCOCCNC(=O)COCCOCCNC(=O)CC[C@@H](NC(=O)CCCCCCCCCCCCCCCCC(=O)O)C(=O)O)C(C)C)C(=O)N(C)CC(N)=O) [Peptide 72]
7,6.2,{C18 diacid}-[d(γGlu)][AEEA][AEEA]K(Ac)HWAV[dA]HL[Nle]-NH2 (SMILES CCCC[C@H](NC(=O)[C@H](CC(C)C)NC(=O)[C@H](Cc1c[nH]cn1)NC(=O)[C@@H](C)NC(=O)[C@@H](NC(=O)[C@H](C)NC(=O)[C@H](Cc1c[nH]c2ccccc12)NC(=O)[C@H](Cc1c[nH]cn1)NC(=O)[C@H](CCCCNC(C)=O)NC(=O)COCCOCCNC(=O)COCCOCCNC(=O)CC[C@@H](NC(=O)CCCCCCCCCCCCCCCCC(=O)O)C(=O)O)C(C)C)C(N)=O) [Peptide 71]
